These results are taken from patent publication US20220017622A1 (Pfizer, published 2022).

Assay [1] concerns the target T1, human B7-H4 extracellular domain (human, UniProt Q7Z7D3 29-258).
T1 construct: For SPR it says only human B7-H4 ECD; also called Hu B7-H4 ECD; huB7-H4 ECD
T1 sequence: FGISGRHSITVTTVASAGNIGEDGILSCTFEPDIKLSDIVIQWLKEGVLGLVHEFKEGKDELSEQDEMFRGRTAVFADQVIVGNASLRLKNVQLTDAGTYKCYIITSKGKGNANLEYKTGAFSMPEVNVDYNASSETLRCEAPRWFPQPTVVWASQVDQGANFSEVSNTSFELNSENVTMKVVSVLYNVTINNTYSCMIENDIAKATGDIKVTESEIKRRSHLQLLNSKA
As to the kind of experiment: SPR Biacore 8K 25 C; mAb captured on anti-human Fc, huB7-H4 ECD analyte, 1:1 fit.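 Also: antibodies tested as IgG1, running buffer HBS-EP+ at pH 7.4, rate constants and affinity from a 1:1 Langmuir model fit.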

A further assay concerns the target T2, human B7-H4 on cells (human, UniProt Q7Z7D3 25-282).
T2 sequence (looked up): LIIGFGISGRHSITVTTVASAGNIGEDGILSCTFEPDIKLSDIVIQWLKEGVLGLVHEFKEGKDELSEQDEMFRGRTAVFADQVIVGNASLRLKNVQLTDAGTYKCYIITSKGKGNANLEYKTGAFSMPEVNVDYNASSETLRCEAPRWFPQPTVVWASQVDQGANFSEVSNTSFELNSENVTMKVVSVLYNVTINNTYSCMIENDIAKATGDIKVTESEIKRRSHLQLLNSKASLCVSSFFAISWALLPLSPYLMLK
Put plainly: cell-based or functional assay.

B1: B7-H4 antibody 0053 (antibody, human IgG1, kappa, V domains shown)
VH: QVQLQQWGAGLLKPSETLSLTCAVYGGPFSGYFWSWIRQPPGKGLEWIGEINHSGNTNYNPSLKSRVTISVDTSKNQFSLKLSSVTAADTAVYYCARAGGDYGFYYYYGMDVWGQGTTVTVSS
VL: DIQLTQSPSTLSASVGDRVTITCRASQSISSWLAWYQQKPGKAPELLVYKASRLESGVPSRFSGSGSGTEFTLTISSLQPDDFATYYCQQYNSYFGGGTKVEIKR
notes: also called 29G6
As a reminder, the Kd is the concentration at which binding is half-saturated. Read a low Kd as a tighter complex. The koff is the rate constant with which the complex falls apart. A lower koff goes with slow dissociation. Broadly, the kon is a measure of how fast the partners come together. Lower therefore signals slower complex formation. In assay [1], B1 registered a Kd of 0.74 nM, a koff of 0.000321 s⁻¹ and a kon of 434000 M⁻¹ s⁻¹.

B2: B7-H4 antibody 0061 (antibody, human IgG1, kappa, V domains shown)
VH: QVQLQQWGAGLLKPSETLSLTCAVYGGSFSGYFWSWIRQPPGKGLEWIGEFNHSGGTNSNPSLKSRVTMSVDTSKNQFSLKLSSVTAADTAVYFCARAGGDYGFYYYYGLDVWGQGTTVTVSS
VL: DIQLTQSPSTLSASVGDRVTITCRASQSISSWLAWYQQKPGKAPELLVYKASRLESGVPSRFSGSGSGTEFTLTISSLQPDDFATYYCQQYNSYFGGGTKVEIKR
notes: also called 46E10
In assay [1], B2 showed a Kd of 0.84 nM, a koff of 0.000572 s⁻¹ and a kon of 678000 M⁻¹ s⁻¹.

B3: B7-H4 antibody 0057 (antibody, human IgG1, kappa, V domains shown)
VH: EVQLLESGGGLVQPGGSLRLSCAASGFTFSSYAMSWVRQAPGKGLEWVSAISGRGGSTYYTDSVKGRFTISRDNSRNTLYLQMNILRAEDTAVYYCARDLQWFGESTLFDYWGQGTLVTVSS
VL: DIQLTQSPSTLSASVGDRVTITCRASQSISAWLAWFQQKPGKAPKLLIYKASSLESGVPSRFSGSGSGTEFTLTISSLQPDDFATYYCQQYNSYSRSFGQGTKLEIKR
notes: also called 34A3
For B3, in assay [1], the affinity, expressed as Kd, was 7.92 nM; the koff worked out at 0.000508 s⁻¹; the kon turned out to be 64100 M⁻¹ s⁻¹.

B4: B7-H4 antibody 0051 (antibody, human IgG1, kappa, V domains shown)
VH: EVQLLESGGGLVQPGGSLRLSCAASGFTFSSYAMSWVRQAPGKGLEWVSSISGNGGSTYYADSVKGRFTISRDNSKNTLSLQMNSLRAEDTAVYYCAKVGWRTGDYWGQGTLVTVSS
VL: DIQLTQSPSTLSASVGDRVTITCRASQSISSWLAWYQQKAGKAPKLLIYKASDLESGVPSRFSGSGSGIEFTLTISSLQPDDFATYYCQQYNSYSWTFGQGTKVEIKR
notes: also called 27C12
With B4, in assay [1], binding was characterised by a dissociation constant (Kd) of 0.57 nM, the koff was found to be 0.000464 s⁻¹ and the kon worked out at 814000 M⁻¹ s⁻¹.

B5: B7-H4 antibody 0049 (antibody, human IgG1, kappa, V domains shown)
VH: EVQLLESGGGLVQPGGSLRLSCAASGFTFSSYAMSWVRQAPGKGLEWVSAISGSGGSTYYADSVKGRFTISRDNSKNTLFLHMNSLRAEDTAVYYCARDIQWFGESVFDYWGQGTLVTVSS
VL: DIQMTQSPSTLSASVGDRVTITCRASQSISSWLAWYQQKPGKAPKLLIYKASSLESGVPSRFSGNGSGTEFTLTISSLQPDDLATYYCQYYNSYSRTFGQGTKVEIKR
notes: also called 13F4
For the molecule B5, in assay [1], the affinity, expressed as Kd, was 1.85 nM; the off-rate (koff) worked out at 0.000414 s⁻¹; the kon came to 225000 M⁻¹ s⁻¹.

B6: B7-H4xCD3 bispecific antibody 0980 (bispecific antibody, IgG2)
heavy 1: EVQLVESGGGLVQPGGSLRLSCAASGGSFSGYYWNWIRQPPGKGLEWIGEIDHQGSTKYNPSLKSRVTISVDTAKNSLYLQMNSLRAEDTAVYYCARGLYNWNVDHWGQGTLVTVSSASTKGPSVFPLAPCSRSTSESTAALGCLVKDYFPEPVTVSWNSGALTSGVHTFPAVLQSSGLYSLSSVVTVPSSNFGTQTYTCNVDHKPSNTKVDKTVERKCEVECPECPAPPVAGPSVFLFPPKPKDTLMISRTPEVTCVVVAVSHEDPEVQFNWYVDGVEVHNAKTKPREEQFNSTFRVVSVLTVVHQDWLNGKEYKCKVSNKGLPSSIEKTISKTKGQPREPQVYTLPPSREEMTKNQVSLTCEVKGFYPSDIAVEWESNGQPENNYKTTPPMLDSDGSFFLYSKLTVDKSRWQQGNVFSCSVMHEALHNHYTQKSLSLSPG
light 1: DIQMTQSPSSLSASVGDRVTITCRASQGIRNDLGWYQQKPGKAPKRLIYAASSLQSGVPSRFSGSGSGTDFTLTISSLQPEDFATYYCLQHSSYPRTFGGGTKVEIKRTVAAPSVFIFPPSDEQLKSGTASVVCLLNNFYPREAKVQWKVDNALQSGNSQESVTEQDSKDSTYSLSSTLTLSKADYEKHKVYACEVTHQGLSSPVTKSFNRGEC
heavy 2: EVQLVESGGGLVQPGGSLRLSCAASGFTFSDYYMTWVRQAPGKGLEWVAFIRNQARGYTSDHNPSVKGRFTISRDNAKNSLYLQMNSLRAEDTAVYYCARDRPSYYVLDYWGQGTTVTVSSASTKGPSVFPLAPCSRSTSESTAALGCLVKDYFPEPVTVSWNSGALTSGVHTFPAVLQSSGLYSLSSVVTVPSSNFGTQTYTCNVDHKPSNTKVDKTVERKCRVRCPRCPAPPVAGPSVFLFPPKPKDTLMISRTPEVTCVVVAVSHEDPEVQFNWYVDGVEVHNAKTKPREEQFNSTFRVVSVLTVVHQDWLNGKEYKCKVSNKGLPSSIEKTISKTKGQPREPQVYTLPPSREEMTKNQVSLTCLVKGFYPSDIAVEWESNGQPENNYKTTPPMLDSDGSFFLYSRLTVDKSRWQQGNVFSCSVMHEALHNHYTQKSLSLSPGK
light 2: DIQMTQSPSSLSASVGDRVTITCTSSQSLFNVRSQKNYLAWYQQKPGKAPKLLIYWASTRESGVPSRFSGSGSGTDFTLTISSLQPEDFATYYCKQSYDLFTFGGGTKVEIKRTVAAPSVFIFPPSDEQLKSGTASVVCLLNNFYPREAKVQWKVDNALQSGNSQESVTEQDSKDSTYSLSSTLTLSKADYEKHKVYACEVTHQGLSSPVTKSFNRGEC
Take B6: in the assay with human B7-H4 on cells, the “T cell mediated tumor cell killing EC50, HCC1954-Luc” value was found to be 390 nM.

B7: B7-H4xCD3 bispecific antibody 0982 (bispecific antibody, IgG2)
heavy 1: EVQLVESGGGLVQPGGSLRLSCAVSGGSFSGYYWNWIRQPPGKGLEWIGEIDHQGSTKYNPSLKSRVTISVDTAKNSLYLQMNSLRAEDTAVYYCARELYNWNVDHWGQGTLVTVSSASTKGPSVFPLAPCSRSTSESTAALGCLVKDYFPEPVTVSWNSGALTSGVHTFPAVLQSSGLYSLSSVVTVPSSNFGTQTYTCNVDHKPSNTKVDKTVERKCEVECPECPAPPVAGPSVFLFPPKPKDTLMISRTPEVTCVVVAVSHEDPEVQFNWYVDGVEVHNAKTKPREEQFNSTFRVVSVLTVVHQDWLNGKEYKCKVSNKGLPSSIEKTISKTKGQPREPQVYTLPPSREEMTKNQVSLTCEVKGFYPSDIAVEWESNGQPENNYKTTPPMLDSDGSFFLYSKLTVDKSRWQQGNVFSCSVMHEALHNHYTQKSLSLSPG
light 1: DIQMTQSPSSLSASVGDRVTITCRASQGIRNDLGWYQQKPGKAPKRLIYAASSLQSGVPSRFSGSGSGTDFTLTISSLQPEDFATYYCLQHSSYPRTFGGGTKVEIKRTVAAPSVFIFPPSDEQLKSGTASVVCLLNNFYPREAKVQWKVDNALQSGNSQESVTEQDSKDSTYSLSSTLTLSKADYEKHKVYACEVTHQGLSSPVTKSFNRGEC
heavy 2: EVQLVESGGGLVQPGGSLRLSCAASGFTFSDYYMTWVRQAPGKGLEWVAFIRNQARGYTSDHNPSVKGRFTISRDNAKNSLYLQMNSLRAEDTAVYYCARDRPSYYVLDYWGQGTTVTVSSASTKGPSVFPLAPCSRSTSESTAALGCLVKDYFPEPVTVSWNSGALTSGVHTFPAVLQSSGLYSLSSVVTVPSSNFGTQTYTCNVDHKPSNTKVDKTVERKCRVRCPRCPAPPVAGPSVFLFPPKPKDTLMISRTPEVTCVVVAVSHEDPEVQFNWYVDGVEVHNAKTKPREEQFNSTFRVVSVLTVVHQDWLNGKEYKCKVSNKGLPSSIEKTISKTKGQPREPQVYTLPPSREEMTKNQVSLTCLVKGFYPSDIAVEWESNGQPENNYKTTPPMLDSDGSFFLYSRLTVDKSRWQQGNVFSCSVMHEALHNHYTQKSLSLSPGK
light 2: DIQMTQSPSSLSASVGDRVTITCTSSQSLFNVRSQKNYLAWYQQKPGKAPKLLIYWASTRESGVPSRFSGSGSGTDFTLTISSLQPEDFATYYCKQSYDLFTFGGGTKVEIKRTVAAPSVFIFPPSDEQLKSGTASVVCLLNNFYPREAKVQWKVDNALQSGNSQESVTEQDSKDSTYSLSSTLTLSKADYEKHKVYACEVTHQGLSSPVTKSFNRGEC
Regarding B7, in the assay with human B7-H4 on cells, the “T cell mediated tumor cell killing EC50, HCC1954-Luc” value was 2650 nM.

B8: B7-H4 antibody 0048 (antibody, human IgG1, kappa, V domains shown)
VH: EVQLLESGGGLVQPGGSLRLSCAASGFTFSSYAMKWVRQAPGKGLEWVSTTSGSGGTTYYADSVKGRFTISRDNSKNTLYLQMNSLRAEDTAVYYCAKAGWAAAFDYWGQGTLVTVSS
VL: DIQLTQFPSTLSASVGDRITITCRASQSISDWLAWYQQKPGKAPKLLIYKASSLESGVPSRFSGSGSGTEFTLTISSLQPDDFATYYCQQCNSYWTFGQGTKVEIKR
notes: also called 11F12
In assay [1], B8 showed a Kd of 0.83 nM, a koff of 0.000619 s⁻¹ and an association rate constant (kon) of 745000 M⁻¹ s⁻¹.

B9: B7-H4 antibody 0052 (antibody, human IgG1, kappa, V domains shown)
VH: QVQLQQWGAGLLKPSETLSLTCAVYGGSFSGYYWNWIRQPPGKGLEWIGEINHSGSTKYNPSLKSRVTISGDTSKNQFSLKLNSVTAADTAVYYCVRGLYNWNVDSWGQGTLVTVSS
VL: DIQMTQSPSSLSASVGDRVTITCRASQGIRNDLGWYQQKPGKAPKRLIYVASSLQSGVPSRFSGSGSGTEFTLTISSLQPEDFATYYCLQHNSYPYTFGQGTKLEIKR
notes: also called 28D10
B9: in assay [1], binding was characterised by a dissociation constant (Kd) of 7.83 nM, the koff was determined as 0.0011 s⁻¹ and the kon was found to be 140000 M⁻¹ s⁻¹.

B10: B7-H4 antibody 0055 (antibody, human IgG1, kappa, V domains shown)
VH: QVQLQESGPGLVKPSETLSLTCTVSGGSISSSSYYWGWIRQPPGKGLEWIGTIYFSGNTYYNPSLKSRVTISVDTSKSQLSLKLNSVTAADTAVYYCARLRVTMVRGVIIGVFDYWGQGTLVTVSS
VL: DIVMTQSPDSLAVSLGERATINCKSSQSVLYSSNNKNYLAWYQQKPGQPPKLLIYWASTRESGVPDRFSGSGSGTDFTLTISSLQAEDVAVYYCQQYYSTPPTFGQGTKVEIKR
notes: also called 32F3
As for B10, in assay [1], the Kd is 1.9 nM, the koff came out at 0.000725 s⁻¹ and the kon came out at 382000 M⁻¹ s⁻¹.

B11: B7-H4 antibody 0060 (antibody, human IgG1, kappa, V domains shown)
VH: QVQLQESGPGLVKPSETLSLTCTVSTGSISSSSYYWGWIRQPPGKGLEWIGTIYFSGSTYYNPSLKSRVTISVDTSKNQFSLKLTSVTAADTAVYYCARLRVTMVRGVIIGVFDFWGQGTLVTVSS
VL: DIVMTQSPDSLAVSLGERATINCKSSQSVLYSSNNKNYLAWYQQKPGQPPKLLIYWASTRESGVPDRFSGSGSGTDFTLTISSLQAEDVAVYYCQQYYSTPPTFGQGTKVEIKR
notes: also called 42E2
For B11, in assay [1], the Kd was found to be 1.35 nM, the koff amounted to 0.00075 s⁻¹ and the kon is 558000 M⁻¹ s⁻¹.
